B1: anti-CD30 antibody (5F11) variant E345W (antibody)
heavy: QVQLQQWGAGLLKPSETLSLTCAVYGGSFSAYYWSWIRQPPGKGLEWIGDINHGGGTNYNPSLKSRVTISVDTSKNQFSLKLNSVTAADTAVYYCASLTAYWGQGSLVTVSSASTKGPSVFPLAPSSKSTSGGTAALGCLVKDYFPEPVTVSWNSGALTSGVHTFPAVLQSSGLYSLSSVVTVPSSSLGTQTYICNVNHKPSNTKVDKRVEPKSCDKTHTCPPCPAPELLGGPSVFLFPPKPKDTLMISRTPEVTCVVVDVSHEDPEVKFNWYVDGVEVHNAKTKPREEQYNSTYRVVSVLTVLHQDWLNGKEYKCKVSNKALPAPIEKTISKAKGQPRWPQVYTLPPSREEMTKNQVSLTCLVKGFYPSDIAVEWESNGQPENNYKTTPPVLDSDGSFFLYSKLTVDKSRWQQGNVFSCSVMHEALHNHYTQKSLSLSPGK
light: DIQMTQSPTSLSASVGDRVTITCRASQGISSWLTWYQQKPEKAPKSLIYAASSLQSGVPSRFSGSGSGTDFTLTISSLQPEDFATYYCQQYDSYPITFGQGTRLEIKRTVAAPSVFIFPPSDEQLKSGTASVVCLLNNFYPREAKVQWKVDNALQSGNSQESVTEQDSKDSTYSLSSTLTLSKADYEKHKVYACEVTHQGLSSPVTKSFNRGEC
notes: Single Fc substitution in the 5F11 antibody; EU numbering, not the numbering of the UniProt entry
B2: anti-CD30 antibody (5F11) variant S354R (antibody)
heavy: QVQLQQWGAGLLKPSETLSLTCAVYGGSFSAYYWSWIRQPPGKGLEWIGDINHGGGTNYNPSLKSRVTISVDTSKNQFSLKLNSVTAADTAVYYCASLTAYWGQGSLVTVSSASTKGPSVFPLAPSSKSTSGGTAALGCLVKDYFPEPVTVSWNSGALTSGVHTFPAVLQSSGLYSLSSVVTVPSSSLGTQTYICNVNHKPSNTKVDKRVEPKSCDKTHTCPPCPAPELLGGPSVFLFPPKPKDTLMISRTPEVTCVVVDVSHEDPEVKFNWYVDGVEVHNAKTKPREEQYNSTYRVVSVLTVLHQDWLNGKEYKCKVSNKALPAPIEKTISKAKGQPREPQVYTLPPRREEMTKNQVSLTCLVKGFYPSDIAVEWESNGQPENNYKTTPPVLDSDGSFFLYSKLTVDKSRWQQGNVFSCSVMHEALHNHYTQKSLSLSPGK
light: B1 light
notes: Single Fc substitution in the 5F11 antibody; EU numbering, not the numbering of the UniProt entry; copies: 2 + 2
B3: anti-CD30 antibody (5F11) variant P247I (antibody)
heavy: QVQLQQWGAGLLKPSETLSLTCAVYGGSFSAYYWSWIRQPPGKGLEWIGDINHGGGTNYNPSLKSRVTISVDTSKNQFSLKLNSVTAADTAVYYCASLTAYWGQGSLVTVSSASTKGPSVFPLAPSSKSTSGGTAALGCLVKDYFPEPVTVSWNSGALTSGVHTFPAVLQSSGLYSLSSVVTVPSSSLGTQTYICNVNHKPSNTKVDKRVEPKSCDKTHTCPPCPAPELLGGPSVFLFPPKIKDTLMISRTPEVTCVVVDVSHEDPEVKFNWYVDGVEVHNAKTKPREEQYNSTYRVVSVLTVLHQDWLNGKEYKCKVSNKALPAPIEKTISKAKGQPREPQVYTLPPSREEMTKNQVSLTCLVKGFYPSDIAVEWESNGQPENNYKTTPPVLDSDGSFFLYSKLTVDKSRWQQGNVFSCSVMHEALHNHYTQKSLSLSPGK
light: B1 light
notes: as for B2
B4: anti-CD30 antibody (5F11) variant A378P (antibody)
heavy: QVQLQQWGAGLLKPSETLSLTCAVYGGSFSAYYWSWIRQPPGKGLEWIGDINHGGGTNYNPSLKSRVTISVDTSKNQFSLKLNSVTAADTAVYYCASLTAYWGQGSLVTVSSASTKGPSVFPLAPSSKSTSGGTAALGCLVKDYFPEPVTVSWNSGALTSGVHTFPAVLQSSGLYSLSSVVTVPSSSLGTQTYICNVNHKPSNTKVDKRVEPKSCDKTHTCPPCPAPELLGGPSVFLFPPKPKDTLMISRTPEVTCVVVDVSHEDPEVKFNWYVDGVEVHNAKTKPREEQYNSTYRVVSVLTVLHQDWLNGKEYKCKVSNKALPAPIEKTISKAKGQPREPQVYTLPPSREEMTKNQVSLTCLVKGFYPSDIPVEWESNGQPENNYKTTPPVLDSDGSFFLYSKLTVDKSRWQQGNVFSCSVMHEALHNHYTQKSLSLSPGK
light: B1 light
notes: as for B2
B5: anti-CD30 antibody (5F11) variant S426W (antibody)
heavy: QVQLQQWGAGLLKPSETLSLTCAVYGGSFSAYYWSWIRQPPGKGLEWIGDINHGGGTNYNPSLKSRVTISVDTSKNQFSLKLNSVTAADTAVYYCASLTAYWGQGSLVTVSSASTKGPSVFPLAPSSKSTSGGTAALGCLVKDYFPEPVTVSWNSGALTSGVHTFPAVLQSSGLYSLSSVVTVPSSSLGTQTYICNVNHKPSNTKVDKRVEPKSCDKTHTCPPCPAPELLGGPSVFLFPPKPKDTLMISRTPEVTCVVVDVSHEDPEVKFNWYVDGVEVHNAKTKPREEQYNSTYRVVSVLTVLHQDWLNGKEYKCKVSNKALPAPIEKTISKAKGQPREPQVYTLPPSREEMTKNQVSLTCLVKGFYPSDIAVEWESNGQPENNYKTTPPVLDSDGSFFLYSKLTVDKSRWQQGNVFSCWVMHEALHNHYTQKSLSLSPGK
light: B1 light
notes: as for B2
B6: anti-CD30 antibody (5F11) variant G446W (antibody)
heavy: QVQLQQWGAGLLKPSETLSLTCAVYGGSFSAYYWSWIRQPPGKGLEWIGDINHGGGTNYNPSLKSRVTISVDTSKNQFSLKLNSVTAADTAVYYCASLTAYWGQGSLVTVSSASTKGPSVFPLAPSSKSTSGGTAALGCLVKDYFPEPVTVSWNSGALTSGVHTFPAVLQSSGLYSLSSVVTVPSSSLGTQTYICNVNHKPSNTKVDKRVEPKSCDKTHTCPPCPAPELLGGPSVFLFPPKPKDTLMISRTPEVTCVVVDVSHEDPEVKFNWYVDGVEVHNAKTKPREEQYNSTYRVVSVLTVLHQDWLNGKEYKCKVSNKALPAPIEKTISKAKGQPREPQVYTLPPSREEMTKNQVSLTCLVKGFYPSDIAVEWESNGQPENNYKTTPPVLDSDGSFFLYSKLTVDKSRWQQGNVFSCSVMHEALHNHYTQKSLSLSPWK
light: B1 light
notes: as for B2
B7: anti-CD30 antibody (5F11) variant F404W (antibody)
heavy: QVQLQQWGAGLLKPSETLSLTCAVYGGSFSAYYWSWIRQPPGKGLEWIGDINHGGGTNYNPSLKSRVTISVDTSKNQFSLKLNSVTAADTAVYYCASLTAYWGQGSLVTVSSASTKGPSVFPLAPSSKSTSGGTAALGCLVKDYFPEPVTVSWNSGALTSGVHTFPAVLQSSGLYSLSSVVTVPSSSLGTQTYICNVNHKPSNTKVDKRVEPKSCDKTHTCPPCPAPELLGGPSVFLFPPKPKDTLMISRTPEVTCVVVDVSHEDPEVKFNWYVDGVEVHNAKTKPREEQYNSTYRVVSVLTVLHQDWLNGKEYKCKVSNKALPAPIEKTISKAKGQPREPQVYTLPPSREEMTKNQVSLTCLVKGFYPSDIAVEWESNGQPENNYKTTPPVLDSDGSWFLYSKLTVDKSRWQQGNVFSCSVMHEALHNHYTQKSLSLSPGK
light: B1 light
notes: as for B2
B8: anti-CD30 antibody (5F11) variant S254W (antibody)
heavy: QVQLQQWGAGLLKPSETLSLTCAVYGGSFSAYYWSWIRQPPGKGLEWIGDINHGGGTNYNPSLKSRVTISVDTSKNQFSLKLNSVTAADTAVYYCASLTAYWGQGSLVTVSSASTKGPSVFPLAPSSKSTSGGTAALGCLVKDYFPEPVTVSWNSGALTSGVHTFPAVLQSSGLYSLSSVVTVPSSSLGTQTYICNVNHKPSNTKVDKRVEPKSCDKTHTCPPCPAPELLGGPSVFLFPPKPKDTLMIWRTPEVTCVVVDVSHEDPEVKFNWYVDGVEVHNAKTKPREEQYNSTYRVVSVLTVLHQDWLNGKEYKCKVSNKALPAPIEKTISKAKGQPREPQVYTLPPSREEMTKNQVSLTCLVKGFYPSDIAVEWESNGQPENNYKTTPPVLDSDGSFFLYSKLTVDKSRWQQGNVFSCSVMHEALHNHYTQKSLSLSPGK
light: B1 light
notes: as for B2
B9: anti-CD30 antibody (5F11) variant D376T (antibody)
heavy: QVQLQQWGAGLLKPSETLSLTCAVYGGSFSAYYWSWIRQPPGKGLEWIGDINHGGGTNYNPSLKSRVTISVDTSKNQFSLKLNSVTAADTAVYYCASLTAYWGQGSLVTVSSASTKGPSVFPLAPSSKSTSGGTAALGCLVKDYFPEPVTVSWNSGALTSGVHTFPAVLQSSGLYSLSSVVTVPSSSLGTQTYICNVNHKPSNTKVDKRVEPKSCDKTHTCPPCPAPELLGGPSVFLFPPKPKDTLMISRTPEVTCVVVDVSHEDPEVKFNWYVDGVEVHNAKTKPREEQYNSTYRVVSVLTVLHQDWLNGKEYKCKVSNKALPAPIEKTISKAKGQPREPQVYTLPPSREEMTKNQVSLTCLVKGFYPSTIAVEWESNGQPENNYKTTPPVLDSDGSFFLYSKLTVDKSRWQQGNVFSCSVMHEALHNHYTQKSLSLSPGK
light: B1 light
notes: as for B2
B10: anti-CD30 antibody (5F11) variant P396I (antibody)
heavy: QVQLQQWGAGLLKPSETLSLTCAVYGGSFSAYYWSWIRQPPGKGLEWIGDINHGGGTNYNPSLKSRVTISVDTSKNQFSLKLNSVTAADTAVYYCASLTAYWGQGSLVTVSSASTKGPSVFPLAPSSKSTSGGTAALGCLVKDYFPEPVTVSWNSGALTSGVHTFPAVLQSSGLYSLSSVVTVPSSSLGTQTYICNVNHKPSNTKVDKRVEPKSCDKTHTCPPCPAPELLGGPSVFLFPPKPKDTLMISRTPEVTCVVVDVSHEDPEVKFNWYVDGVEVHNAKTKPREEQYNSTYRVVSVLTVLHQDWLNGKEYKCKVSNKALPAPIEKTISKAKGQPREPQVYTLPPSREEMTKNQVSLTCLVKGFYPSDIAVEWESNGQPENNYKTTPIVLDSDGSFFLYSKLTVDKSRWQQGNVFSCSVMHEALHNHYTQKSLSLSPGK
light: B1 light
notes: as for B2
B11: anti-CD30 antibody (5F11) variant E356K (antibody)
heavy: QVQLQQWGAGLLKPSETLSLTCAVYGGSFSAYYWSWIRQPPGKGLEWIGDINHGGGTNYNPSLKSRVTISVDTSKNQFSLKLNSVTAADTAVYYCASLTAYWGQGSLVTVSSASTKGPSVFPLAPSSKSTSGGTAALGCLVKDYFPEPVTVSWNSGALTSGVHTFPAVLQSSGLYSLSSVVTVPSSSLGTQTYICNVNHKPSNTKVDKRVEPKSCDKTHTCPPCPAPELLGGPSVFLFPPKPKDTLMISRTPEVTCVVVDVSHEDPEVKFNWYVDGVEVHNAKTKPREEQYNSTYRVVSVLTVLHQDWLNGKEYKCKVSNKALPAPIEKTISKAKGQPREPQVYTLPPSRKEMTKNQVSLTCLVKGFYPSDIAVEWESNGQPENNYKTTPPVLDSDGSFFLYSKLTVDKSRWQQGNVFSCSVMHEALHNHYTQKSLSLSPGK
light: B1 light
notes: Single Fc substitution in the 5F11 antibody; EU numbering; copies: 2 + 2

target: T1, human FcRn (recombinant soluble receptor, 6XHis, co-expressed with beta2 microglobulin) (human, UniProt P61769 21-119); experiment: Luminex assay, pH 6
T1 construct: purified on nickel; also called huFcRn
T1 sequence (chain, as listed by the source limits assumed, chain 1 of 2): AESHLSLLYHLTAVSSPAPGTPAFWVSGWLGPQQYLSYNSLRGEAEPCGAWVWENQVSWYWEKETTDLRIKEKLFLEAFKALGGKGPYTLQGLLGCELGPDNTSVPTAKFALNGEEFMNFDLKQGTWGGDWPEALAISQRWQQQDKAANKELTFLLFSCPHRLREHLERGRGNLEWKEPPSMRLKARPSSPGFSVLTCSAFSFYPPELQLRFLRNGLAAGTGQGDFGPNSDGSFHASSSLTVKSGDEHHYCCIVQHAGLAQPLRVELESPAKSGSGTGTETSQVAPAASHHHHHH
T1 sequence (P61769 21-119 limits assumed, chain 2 of 2): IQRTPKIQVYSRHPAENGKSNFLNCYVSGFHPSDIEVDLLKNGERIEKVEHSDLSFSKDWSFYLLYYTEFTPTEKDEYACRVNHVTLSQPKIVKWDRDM

Binder | FcRn binding at pH 6 (fold difference vs wild type anti-CD30)
B1 | 1.3 fold vs wild type
B2 | 1.3 fold vs wild type
B3 | 1.1 fold vs wild type
B4 | 0.6 fold vs wild type
B5 | 0.6 fold vs wild type
B6 | 1.1 fold vs wild type
B7 | 1.7 fold vs wild type
B8 | 0.2 fold vs wild type
B9 | 1.6 fold vs wild type
B10 | 1.4 fold vs wild type
B11 | 1.4 fold vs wild type

— patent publication US20100104564A1 (published 2010)
